Assay results: paper PMC10663520, “Qa-SNARE syntaxin 18 mediates lipid droplet fusion with SNAP23 and SEC22B” (Cell Discovery, 2023)

T1: GST-Flag-STX18 (full-length) (UniProt Q9P2W9 1-335)
T1 construct: syntaxin 18 (STX18), full length, in pGEX-4T-1 with GST-TEV-3xFLAG at the N-terminus; C-terminus printed as 331-DWYDS-335; The methods describe only the TEV-cleaved preparation; also called GST-STX18; GST-Flag-tagged STX18; source: E. coli BL21 (C43), purified (Glutathione Sepharose 4B); not shown: GST, N-terminal, kept; 3xFLAG, N-terminal, kept
T1 sequence (looked up): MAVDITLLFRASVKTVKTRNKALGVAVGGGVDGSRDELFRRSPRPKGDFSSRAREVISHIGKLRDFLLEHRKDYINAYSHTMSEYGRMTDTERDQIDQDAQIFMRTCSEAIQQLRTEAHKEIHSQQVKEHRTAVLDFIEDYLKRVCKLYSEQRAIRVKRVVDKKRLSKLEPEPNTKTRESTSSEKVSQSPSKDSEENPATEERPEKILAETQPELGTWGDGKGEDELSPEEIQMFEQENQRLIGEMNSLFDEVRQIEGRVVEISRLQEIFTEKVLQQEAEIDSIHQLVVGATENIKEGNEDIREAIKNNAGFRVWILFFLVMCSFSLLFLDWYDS

B1: SNAP23 (full-length, purified) (natural protein, UniProt O00161 1-211, looked up)
chain: MDNLSSEEIQQRAHQITDESLESTRRILGLAIESQDAGIKTITMLDEQKEQLNRIEEGLDQINKDMRETEKTLTELNKCCGLCVCPCNRTKNFESGKAYKTTWGDGGENSPCNVVSKQPGPVTNGQLQQPTTGAASGGYIKRITNDAREDEMEENLTQVGSILGNLKDMALNIGNEIDAQNPQIKRITDKADTNRDRIDIANARAKKLIDS
notes: SNAP23, full length, in pGEX with N-terminal GST and a TEV site after it; The uncleaved form is called GST-Flag-SNAP23 in the pull-down methods; if a FLAG follows the TEV site it would remain here; also called purified SNAP23; source: E. coli BL21 (DE3), purified (Glutathione Sepharose 4B, TEV on beads); not shown: GST, N-terminal, cleaved
B2: GST-Flag-SNAP23 (natural protein, UniProt O00161 1-211, looked up)
chain: B1 chain
notes: SNAP23, full length, in pGEX with N-terminal GST and a TEV site after it; The cloning paragraph names no FLAG tag for this construct; the pull-down methods and legends call it GST-Flag-SNAP23; also called GST-SNAP23; GST-Flag-tagged SNAP23; source: E. coli BL21 (DE3), purified (Glutathione Sepharose 4B); not shown: GST, N-terminal, kept
B3: SEC22B (full-length, purified) (natural protein, UniProt O75396 1-215, looked up)
chain: MVLLTMIARVADGLPLAASMQEDEQSGRDLQQYQSQAKQLFRKLNEQSPTRCTLEAGAMTFHYIIEQGVCYLVLCEAAFPKKLAFAYLEDLHSEFDEQHGKKVPTVSRPYSFIEFDTFIQKTKKLYIDSRARRNLGSINTELQDVQRIMVANIEEVLQRGEALSALDSKANNLSSLSKKYRQDAKYLNMRSTYAKLAAVAVFFIMLIVYVRFWWL
notes: SEC22B, full length, in pGEX with N-terminal GST and a TEV site after it; C-terminus printed as 212-FWWL-215; The uncleaved form is called GST-Flag-SEC22B in the pull-down methods; if a FLAG follows the TEV site it would remain here; also called purified SEC22B; source: E. coli BL21 (C43), purified (Glutathione Sepharose 4B, TEV on beads); not shown: GST, N-terminal, cleaved
B4: STX18-SNARE (243-305), individually purified (domain or fragment, UniProt Q9P2W9 243-305, looked up)
chain: IGEMNSLFDEVRQIEGRVVEISRLQEIFTEKVLQQEAEIDSIHQLVVGATENIKEGNEDIREA
notes: syntaxin 18 (STX18), SNARE domain, residues 243-305, in pGEX-4T-1 with GST-TEV-FLAG at the N-terminus; The TEV site lies between GST and FLAG, so the FLAG tag should remain after cleavage (surmised); source: E. coli BL21 (DE3), purified (Glutathione Sepharose 4B, TEV on beads, Superdex 75); not shown: GST, N-terminal, cleaved
B5: SEC22B-SNARE (134-194), individually purified (domain or fragment, UniProt O75396 134-194, looked up)
chain: NLGSINTELQDVQRIMVANIEEVLQRGEALSALDSKANNLSSLSKKYRQDAKYLNMRSTYA
notes: SEC22B, SNARE domain, residues 134-194, in pET28 with 6xHis at the N-terminus

Tests used:
Conditions in all cases: both partners purified
[1] = biological target: T1, GST-Flag-STX18 (full-length); assay: pull-down; GST-Flag-tagged bait on GST agarose beads, 4 °C 1 h; 20 mM HEPES pH 7.4, 300 mM NaCl, 1 mM EDTA, 1% OG, 0.1% FOS-Choline-12; purified SEC22B (54.7 μM, 20 μL) or SNAP23 (280 μM, 5 μL) added; immunoblot and Coomassie
[2] = biological target: B3; assay: as above
[3] = biological target: B1; assay: SEC; individually purified SNAP23, STX18-SNARE and SEC22B-SNARE, alone or as an in vitro incubated mixture of the three, on Superdex75 10/300 GL; SDS-PAGE of fractions

B1: binds [1].

B2: binds [2].

B3: binds [1].

B4: binds [3].

B5: binds [3].
